In publication doi:10.1101/786475 (bioRxiv, 2019):

Assays:
Test in all cases: peptide or protein array
[1] = molecular target: T1, Gpp2p (spotted on the yeast ProtoArray) (S. cerevisiae, UniProt P40106 1-250)
T1 sequence (looked up): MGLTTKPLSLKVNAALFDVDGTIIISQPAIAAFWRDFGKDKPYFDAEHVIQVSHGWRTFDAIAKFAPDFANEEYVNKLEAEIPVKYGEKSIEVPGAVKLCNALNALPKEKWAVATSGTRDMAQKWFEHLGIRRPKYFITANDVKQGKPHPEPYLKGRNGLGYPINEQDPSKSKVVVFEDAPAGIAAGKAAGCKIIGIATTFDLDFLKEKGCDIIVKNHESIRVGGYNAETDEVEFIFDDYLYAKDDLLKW

[2] = molecular target: T2, Nap1p (spotted on the yeast ProtoArray) (S. cerevisiae, UniProt P25293 1-417)
T2 sequence (looked up): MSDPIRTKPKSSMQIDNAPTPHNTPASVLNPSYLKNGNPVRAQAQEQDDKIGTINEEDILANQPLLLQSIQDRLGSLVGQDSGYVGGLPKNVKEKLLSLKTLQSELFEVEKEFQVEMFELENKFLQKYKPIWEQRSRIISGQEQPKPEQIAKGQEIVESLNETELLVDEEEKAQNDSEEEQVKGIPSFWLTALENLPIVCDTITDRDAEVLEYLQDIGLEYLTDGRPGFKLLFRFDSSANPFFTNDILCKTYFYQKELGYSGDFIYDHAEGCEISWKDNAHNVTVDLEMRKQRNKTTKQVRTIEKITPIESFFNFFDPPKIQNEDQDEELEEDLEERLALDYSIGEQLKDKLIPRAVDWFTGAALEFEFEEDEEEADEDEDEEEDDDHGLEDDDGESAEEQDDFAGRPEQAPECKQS

[3] = molecular target: T3, Emi2p (spotted on the yeast ProtoArray) (S. cerevisiae, UniProt Q04409 1-500)
T3 sequence (looked up): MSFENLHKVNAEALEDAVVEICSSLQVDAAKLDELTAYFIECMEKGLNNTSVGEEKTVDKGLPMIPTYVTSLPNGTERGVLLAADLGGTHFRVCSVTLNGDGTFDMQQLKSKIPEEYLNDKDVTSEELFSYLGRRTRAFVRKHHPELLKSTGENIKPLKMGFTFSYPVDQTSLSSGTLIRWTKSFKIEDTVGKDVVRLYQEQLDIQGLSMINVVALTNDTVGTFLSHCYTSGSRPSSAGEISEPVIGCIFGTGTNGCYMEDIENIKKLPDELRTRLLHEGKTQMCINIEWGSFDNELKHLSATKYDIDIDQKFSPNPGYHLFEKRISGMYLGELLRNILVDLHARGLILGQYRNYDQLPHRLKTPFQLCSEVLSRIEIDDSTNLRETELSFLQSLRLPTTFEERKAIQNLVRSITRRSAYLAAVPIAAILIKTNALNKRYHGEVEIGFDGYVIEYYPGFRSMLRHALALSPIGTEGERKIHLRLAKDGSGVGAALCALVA

[4] = molecular target: T4, Cia1p (spotted on the yeast ProtoArray) (S. cerevisiae, UniProt Q05583 1-330)
T4 sequence (looked up): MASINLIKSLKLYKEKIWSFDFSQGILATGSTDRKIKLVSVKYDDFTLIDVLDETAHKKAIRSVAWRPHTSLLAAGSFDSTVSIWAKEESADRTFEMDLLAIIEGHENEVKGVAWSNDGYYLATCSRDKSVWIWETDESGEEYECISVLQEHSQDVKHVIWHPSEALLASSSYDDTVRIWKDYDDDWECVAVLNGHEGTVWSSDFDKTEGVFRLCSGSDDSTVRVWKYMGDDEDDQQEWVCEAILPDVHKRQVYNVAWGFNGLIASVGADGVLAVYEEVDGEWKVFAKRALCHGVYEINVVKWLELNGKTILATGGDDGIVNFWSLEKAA

[5] = molecular target: T5, Ski8p (spotted on the yeast ProtoArray) (S. cerevisiae, UniProt Q02793 1-397)
T5 sequence (looked up): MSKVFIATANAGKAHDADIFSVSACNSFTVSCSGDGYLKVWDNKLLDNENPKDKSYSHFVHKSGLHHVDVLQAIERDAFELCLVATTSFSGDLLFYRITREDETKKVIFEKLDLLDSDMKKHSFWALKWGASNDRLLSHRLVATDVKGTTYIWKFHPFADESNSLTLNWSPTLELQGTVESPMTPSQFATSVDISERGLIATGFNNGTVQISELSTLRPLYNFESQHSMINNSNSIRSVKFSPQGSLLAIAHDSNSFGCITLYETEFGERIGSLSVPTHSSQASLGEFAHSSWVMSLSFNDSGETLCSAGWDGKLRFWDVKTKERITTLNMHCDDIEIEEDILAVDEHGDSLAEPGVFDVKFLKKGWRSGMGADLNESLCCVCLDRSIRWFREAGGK

[6] = molecular target: T6, Cap2p (spotted on the yeast ProtoArray) (S. cerevisiae, UniProt P13517 1-287)
T6 sequence (looked up): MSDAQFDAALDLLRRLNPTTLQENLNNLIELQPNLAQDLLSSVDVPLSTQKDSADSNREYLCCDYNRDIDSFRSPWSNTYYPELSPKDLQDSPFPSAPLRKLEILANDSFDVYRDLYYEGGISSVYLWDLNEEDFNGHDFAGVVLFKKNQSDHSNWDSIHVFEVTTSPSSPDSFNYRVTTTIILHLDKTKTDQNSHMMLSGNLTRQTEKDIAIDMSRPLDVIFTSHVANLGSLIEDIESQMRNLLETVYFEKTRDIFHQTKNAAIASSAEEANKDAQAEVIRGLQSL

binding result [1]: binds
binding result [2]: binds
binding result [3]: binds
binding result [4]: binds
binding result [5]: binds
binding result [6]: binds
B1: purified and biotinylated cytoplasmic domain of the Msb2p protein (HIS-Msb2p^CYT) (domain or fragment, S. cerevisiae, UniProt P32334 1207-1306, looked up)
chain: AFKYIIRRRIQSQEIIKNPEISSISSSEFGGEKNYNNEKRMSVQESITQSMRIQNWMDDSYYGHGLTNNDSTPTRHNTSSSIPKISRPIASQNSLGWNEV
modifications: biotinylated in vitro (sites not given)
